Data: US20240158509A1 (MOMENTA PHARMACEUTICALS, published 2024)

Assays:
[1] = molecular target: endogenously expressed human FcRn (human, UniProt P55899 24-365; P61769 21-119); experiment: cell-based or functional assay
[2] = molecular target: T1, endogenous cynomolgus monkey FcRn in monocytes (cynomolgus monkey, UniProt Q8SPV9 24-365; Q8SPW0 21-119); experiment: target occupancy in vivo: monocytes from lysed whole blood of cynomolgus monkeys after one i.v. dose, fixed and permeabilized, unoccupied FcRn stained with Dy650-labeled N027, FACS
T1 construct: whole, on cells; Target occupancy was measured ex vivo by FACS on fixed and permeabilized monocytes
T1 sequence (Q8SPV9 24-365, chain 1 of 2): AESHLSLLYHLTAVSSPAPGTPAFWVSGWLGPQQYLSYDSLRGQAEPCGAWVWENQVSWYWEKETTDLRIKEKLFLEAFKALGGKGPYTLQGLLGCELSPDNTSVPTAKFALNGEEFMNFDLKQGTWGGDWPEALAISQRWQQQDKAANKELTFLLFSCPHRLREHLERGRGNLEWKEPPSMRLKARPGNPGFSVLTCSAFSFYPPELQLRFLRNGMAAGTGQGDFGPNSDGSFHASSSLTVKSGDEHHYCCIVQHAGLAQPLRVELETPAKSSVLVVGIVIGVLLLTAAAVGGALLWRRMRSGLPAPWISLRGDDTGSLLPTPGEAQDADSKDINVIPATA
T1 sequence (Q8SPW0 21-119, chain 2 of 2): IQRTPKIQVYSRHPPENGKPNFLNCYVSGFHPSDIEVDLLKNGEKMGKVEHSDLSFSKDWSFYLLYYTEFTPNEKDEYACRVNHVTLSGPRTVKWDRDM

- intracellular IgG accumulation (VivoTag645-IgG, gMFI), ~IC50, HAECs [1]: ~0.12 µg/mL
- intracellular IgG accumulation (VivoTag645-IgG, gMFI), ~IC50, HUVECs [1]: ~0.15 µg/mL
- intracellular IgG accumulation (VivoTag645-IgG, gMFI), ~IC50, HVTs [1]: ~0.07 µg/mL
- binding result [2]: binds
B1: N027 (antibody, human IgG1, lambda, N297A)
heavy: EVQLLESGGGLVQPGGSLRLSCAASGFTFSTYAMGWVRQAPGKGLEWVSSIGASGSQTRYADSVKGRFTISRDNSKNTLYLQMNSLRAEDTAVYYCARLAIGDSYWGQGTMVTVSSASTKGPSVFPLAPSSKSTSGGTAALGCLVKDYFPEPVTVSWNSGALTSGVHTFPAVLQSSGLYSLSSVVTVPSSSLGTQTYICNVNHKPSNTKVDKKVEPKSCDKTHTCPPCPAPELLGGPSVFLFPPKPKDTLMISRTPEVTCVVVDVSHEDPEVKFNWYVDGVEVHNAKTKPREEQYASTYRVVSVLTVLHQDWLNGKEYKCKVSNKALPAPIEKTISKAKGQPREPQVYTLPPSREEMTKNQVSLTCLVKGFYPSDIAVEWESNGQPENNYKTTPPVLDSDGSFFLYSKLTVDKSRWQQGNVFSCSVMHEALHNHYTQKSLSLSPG
light: QSALTQPASVSGSPGQSITISCTGTGSDVGSYNLVSWYQQHPGKAPKLMIYGDSERPSGVSNRFSGSKSGNTASLTISGLQAEDEADYYCSSYAGSGIYVFGTGTKVTVLGQPKAAPSVTLFPPSSEELQANKATLVCLISDFYPGAVTVAWKADSSPVKAGVETTTPSKQSNNKYAASSYLSLTPEQWKSHKSYSCQVTHEGSTVEKTVAPTECS
notes: Full-length IgG; In the occupancy assays unlabeled N027 was followed by dye-labeled N027 (Dy650, VivoTag645); DyLight594-N027 was used for imaging; also called M281; anti-FcRn antibody N027
